For test [1], the target named is truncated human CD163 ECD SRCR domain 1-5 fragment with C-terminus histidine tag (human) (UniProt Q86VB7). In words: ratio of EC50 on huCD163 SRCR 1-5 to EC50 on huCD163 ECD.
Test [2] has as its target recombinant murine CD163 (R&D Systems, No. 7435-CD-050) (murine) (UniProt Q2VLH6). In words: ELISA on plate-coated recombinant murine CD163 (5 ug/mL). (In general: ELISA stands for enzyme-linked immunosorbent assay.)

As a reminder, the EC50 (read off the curve) is the concentration needed to bring the measured effect to its halfway point.

truncated human CD163 ECD SRCR domain 1-5 fragment with C-terminus histidine tag (human), sequence (Q86VB7 42-578 limits assumed): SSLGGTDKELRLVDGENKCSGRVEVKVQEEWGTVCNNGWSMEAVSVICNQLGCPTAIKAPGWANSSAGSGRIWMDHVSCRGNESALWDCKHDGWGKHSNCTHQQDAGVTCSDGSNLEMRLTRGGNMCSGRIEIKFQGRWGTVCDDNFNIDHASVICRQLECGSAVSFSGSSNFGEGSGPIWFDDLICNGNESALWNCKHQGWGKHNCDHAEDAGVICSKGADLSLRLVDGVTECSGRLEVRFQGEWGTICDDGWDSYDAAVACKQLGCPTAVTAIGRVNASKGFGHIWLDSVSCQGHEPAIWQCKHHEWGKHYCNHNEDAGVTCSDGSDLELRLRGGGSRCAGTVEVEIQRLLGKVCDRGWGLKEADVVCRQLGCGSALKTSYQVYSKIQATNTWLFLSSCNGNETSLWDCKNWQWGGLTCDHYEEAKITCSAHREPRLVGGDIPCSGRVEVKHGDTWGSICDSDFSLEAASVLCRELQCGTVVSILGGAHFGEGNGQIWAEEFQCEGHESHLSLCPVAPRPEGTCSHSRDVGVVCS
recombinant murine CD163 (R&D Systems, No. 7435-CD-050) (murine), sequence (Q2VLH6 39-1045 limits assumed): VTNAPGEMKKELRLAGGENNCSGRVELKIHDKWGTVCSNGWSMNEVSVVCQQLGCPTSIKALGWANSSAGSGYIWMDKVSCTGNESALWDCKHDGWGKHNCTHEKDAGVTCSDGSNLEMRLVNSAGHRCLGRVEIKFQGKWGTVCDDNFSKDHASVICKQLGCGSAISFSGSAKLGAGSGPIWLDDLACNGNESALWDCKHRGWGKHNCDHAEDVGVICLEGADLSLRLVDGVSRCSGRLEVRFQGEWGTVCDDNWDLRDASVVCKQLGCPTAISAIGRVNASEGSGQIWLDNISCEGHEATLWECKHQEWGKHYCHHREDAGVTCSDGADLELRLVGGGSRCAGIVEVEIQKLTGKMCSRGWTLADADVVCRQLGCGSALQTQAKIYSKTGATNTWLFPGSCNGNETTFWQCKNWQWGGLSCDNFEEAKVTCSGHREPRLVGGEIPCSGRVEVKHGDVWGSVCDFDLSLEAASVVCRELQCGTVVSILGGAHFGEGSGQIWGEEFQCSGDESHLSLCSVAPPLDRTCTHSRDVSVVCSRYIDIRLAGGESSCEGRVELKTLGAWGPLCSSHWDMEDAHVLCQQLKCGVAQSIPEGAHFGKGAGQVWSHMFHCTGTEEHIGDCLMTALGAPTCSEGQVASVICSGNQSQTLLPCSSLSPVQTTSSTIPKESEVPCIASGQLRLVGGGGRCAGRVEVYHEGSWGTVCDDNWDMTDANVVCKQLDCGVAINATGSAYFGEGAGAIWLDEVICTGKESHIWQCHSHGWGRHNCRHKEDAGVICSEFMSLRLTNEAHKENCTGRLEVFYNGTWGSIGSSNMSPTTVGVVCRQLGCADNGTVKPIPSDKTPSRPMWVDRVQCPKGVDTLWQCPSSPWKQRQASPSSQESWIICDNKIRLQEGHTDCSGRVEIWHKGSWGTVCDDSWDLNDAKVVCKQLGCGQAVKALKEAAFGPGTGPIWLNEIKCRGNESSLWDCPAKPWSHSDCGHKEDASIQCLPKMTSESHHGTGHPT

Consider 215927 (antibody), for which the Ratio SRCR 1-5/ECD in test [1] was found to be 1.17.
Same read-out and setting: for EDHu-1 (antibody) the value was 0.96.
On to “commercially available rat anti-muCD163 antibody (Thermo Fisher Scientific #14-1631-82)”, for which, in test [2], the EC50 (read off the curve) came to 0.03 nM.
